Experimental data published in patent publication US20190111032A1 (GEORGIA STATE UNIVERSITY RESEARCH FOUNDATION, published 2019).

Target: the molecule itself
Assay: size exclusion chromatography and non-reducing SDS-PAGE
Experimental: hCaSR-ECD (from residue Tyr²⁰ to Phe⁶¹²) (FIG. 1) was expressed in suspension culture of HEK293S (GnTI-) cells and purified from the culture medium by Ni²⁺-NTA chromatography as previously described. To deglycosylate the purified protein, hCaSR-ECD was incubated with recombinant endoglycosidase F1 (Endo F1) at a 1:100 mass ratio of Endo F1 to hCaSR-ECD²⁶ overnight at 4° C. in 10 mM Tris buffer, pH 7.4. Further separation of hCaSR-ECD from Endo F1 was achieved by size exclusion chromatography (SEC) in 10 mM HEPES (pH 7.3) buffer. hCaSR-ECD forms a homodimer, as determined by the elution volume observed in SEC.

B1: extracellular domain of the human calcium-sensing receptor (hCaSR-ECD), residues Tyr20 to Phe612 (receptor, UniProt P41180 20-612, looked up)
chain: YGPDQRAQKKGDIILGGLFPIHFGVAAKDQDLKSRPESVECIRYNFRGFRWLQAMIFAIEEINSSPALLPNLTLGYRIFDTCNTVSKALEATLSFVAQNKIDSLNLDEFCNCSEHIPSTIAVVGATGSGVSTAVANLLGLFYIPQVSYASSSRLLSNKNQFKSFLRTIPNDEHQATAMADIIEYFRWNWVGTIAADDDYGRPGIEKFREEAEERDICIDFSELISQYSDEEEIQHVVEVIQNSTAKVIVVFSSGPDLEPLIKEIVRRNITGKIWLASEAWASSSLIAMPQYFHVVGGTIGFALKAGQIPGFREFLKKVHPRKSVHNGFAKEFWEETFNCHLQEGAKGPLPVDTFLRGHEESGDRFSNSSTAFRPLCTGDENISSVETPYIDYTHLRISYNVYLAVYSIAHALQDIYTCLPGRGLFTNGSCADIKKVEAWQVLKHLRHLNFTNNMGEQVTFDECGDLVGNYSIINWHLSPEDGSIVFKEVGYYNVYAKKGERLFINEEKILWSGFSREVPFSNCSRDCLAGTRKGIIEGEPTCCFECVECPDGEYSDETDASACNKCPDDFWSNENHTSCIAKEIEFLSWTEPF
modifications: N-glycans trimmed with endoglycosidase F1 before SEC and crystallization (expressed in HEK293S GnTI- cells)
notes: range 20-612; This entry is one protomer; also called ECD of CaSR
  binding result: binds
